# From article PMC5529513
# Key:
# [1] = target: ephrin-A5 Fc (UniProt P52803); assay: SPR; settings: Fc fusion
# [2] = target: ephrin-A5 Fc (UniProt P52803); assay: ELISA; settings: Fc fusion
# [3] = target: ephrin-B3 Fc (UniProt Q15768); assay: ELISA; settings: Fc fusion
# [4] = target: EphA4 Fc (wild type): human EphA4 ectodomain fused to IgG4 Fc (human) (UniProt P54764); assay: AUC; sedimentation velocity, 10 mM potassium phosphate pH 7.6, 20 °C, 40,000 rpm, c(s) fit with SEDFIT; oligomeric state of the Fc fusion
# [5] = target: ephrin-A5 Fc (UniProt P52803); assay: SPR; BIAcore T200; ephrin-A5 Fc amine-coupled on CM5 chip; EphA4 Fc proteins 500 to 50 nM in 10 mM HEPES pH 7.4, 150 mM NaCl, 3 mM EDTA, 0.05% Surfactant P20; 30 µl/min; bivalent analyte model and steady state affinity model
# [6] = target: triple mutant of EphA4 Fc (N235Q, N340Q, N408Q) (human) (UniProt P54764); assay: AUC; sedimentation velocity, 10 mM potassium phosphate pH 7.6, 20 °C, 40,000 rpm, c(s) fit with SEDFIT; oligomeric state of the Fc fusion
# Chain of UniProt Q15768 (Q15768 28-226): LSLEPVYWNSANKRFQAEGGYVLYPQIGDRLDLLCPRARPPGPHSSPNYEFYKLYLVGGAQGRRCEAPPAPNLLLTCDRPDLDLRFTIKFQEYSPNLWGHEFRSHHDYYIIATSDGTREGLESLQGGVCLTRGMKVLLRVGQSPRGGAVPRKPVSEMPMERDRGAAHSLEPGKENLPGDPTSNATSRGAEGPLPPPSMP
Substance,Kd [1],Kd [2],Kd [3],stoichiometry N [4],ka1 (bivalent analyte model) [5],ka2 (bivalent analyte model) [5],kd1 (bivalent analyte model) [5],kd2 (bivalent analyte model) [5],stoichiometry N [6]
EphA4 Fc (wild type): human EphA4 ectodomain fused to IgG4 Fc (from UniProt P54764-1 20-547),318 nM,0.51 nM,23.9 nM,–,–,–,–,–,–
EphA4 Fc (wild type): human EphA4 ectodomain fused to IgG4 Fc (from UniProt P54764-1 20-547) (Fc fusion),–,–,–,2,56300 M⁻¹ s⁻¹,0.000112 RU^-1s^-1,0.0224 s⁻¹,0.00106 s⁻¹,–
"triple mutant of EphA4 Fc (N235Q, N340Q, N408Q) (from UniProt P54764-1 20-547) (Fc fusion)",–,–,–,–,115000 M⁻¹ s⁻¹,5.4e-05 RU^-1s^-1,0.0184 s⁻¹,2.66e-06 s⁻¹,2
